For series [1], the target named is T1, AppA (Escherichia coli periplasmic phytase) (Escherichia coli, UniProt P07102).
T1 construct: mature enzyme lacking the periplasmic signal peptide (residues 1–22)
T1 sequence (P07102 23-432): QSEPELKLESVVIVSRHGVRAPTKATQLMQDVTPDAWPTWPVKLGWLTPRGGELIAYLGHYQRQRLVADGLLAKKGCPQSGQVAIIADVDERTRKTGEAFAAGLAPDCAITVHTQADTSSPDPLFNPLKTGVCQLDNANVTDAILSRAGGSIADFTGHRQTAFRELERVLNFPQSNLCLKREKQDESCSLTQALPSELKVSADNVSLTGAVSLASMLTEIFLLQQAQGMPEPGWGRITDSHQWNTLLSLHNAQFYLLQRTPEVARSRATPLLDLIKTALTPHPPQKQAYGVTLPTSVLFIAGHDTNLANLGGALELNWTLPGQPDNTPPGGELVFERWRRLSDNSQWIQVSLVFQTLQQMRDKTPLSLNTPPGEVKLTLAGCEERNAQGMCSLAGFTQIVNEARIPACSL
In words: X-ray crystal structure at […] Å (soak at pH […]); phytase inhibition assay at pH […]. It is filed as biochemical.

Substrate in series [2]: O=P(O)(O)O[C@H]1[C@H](OP(=O)(O)O)[C@@H](OP(=O)(O)O)[C@H](OP(=O)(O)O)[C@@H](OP(=O)(O)O)[C@H]1OP(=O)(O)O
In words: phosphate release kinetics (Km), HPLC of products. It is filed as biochemical, Escherichia coli. As to conditions: active site.

Setting [3] is: preferential hydrolysis of the 1D-6-phosphate.
Setting [4] is: predominantly 1D-1/3-phytase activity.

Where a chain is given by its changes, count along the chain named. In names and notes the source's numbering stands.

From article PMC9181005, “Insights to the Structural Basis for the Stereospecificity of the Escherichia coli Phytase, AppA” (International Journal of Molecular Sciences, 2022) come the findings set out here.

On to `O=S(=O)(O)O[C@H]1[C@H](OS(=O)(=O)O)[C@@H](OS(=O)(=O)O)[C@H](OS(=O)(=O)O)[C@@H](OS(=O)(=O)O)[C@H]1OS(=O)(=O)O` [InsS6], for which the IC50 – broadly, the point on the concentration scale where inhibition reaches its midpoint – in series [1] was about 10 µM.

B1: AppA (Escherichia coli periplasmic phytase) (Escherichia coli K-12) (protein)
chain: T1 sequence (P07102 23-432)
notes: mature enzyme lacking the periplasmic signal peptide (residues 1–22)
Regarding B1, in series [2] (setting [3]), the Km (in general, the substrate concentration at which the rate is half of its maximum) is on record as 161 µM; the kcat (as a rule, the maximal rate divided by the concentration of active sites) stood at 10200 s⁻¹; the kcat/Km – broadly, the turnover number divided by the Michaelis constant – was determined as 6.4e+07 M⁻¹ s⁻¹.

B2: AppA-HDE (Escherichia coli K-12; T327E) (protein)
chain: T1 sequence (P07102 23-432) with T305E
notes: as for B1
For B2, in series [2], the Km is listed as 92 µM, the kcat turned out to be 1690 s⁻¹ and the kcat/Km is 1.8e+07 M⁻¹ s⁻¹.

B3: AppA-HAE (Escherichia coli K-12; D326A/T327E) (protein)
chain: T1 sequence (P07102 23-432) with D304A, T305E
notes: as for B1
On to B3, for which, in series [2], the Km amounted to 33 µM, the kcat amounted to 12.5 s⁻¹ and the kcat/Km worked out at 380000 M⁻¹ s⁻¹.

B4: AppA-HAT (Escherichia coli K-12; D326A) (protein)
chain: T1 sequence (P07102 23-432) with D304A
notes: as for B1
As for B4, in series [2] (setting [4]), the Km amounted to 32 µM, the kcat amounted to 10.5 s⁻¹ and the kcat/Km turned out to be 320000 M⁻¹ s⁻¹.

B5: AppA-HET (Escherichia coli K-12; D326E) (protein)
chain: T1 sequence (P07102 23-432) with D304E
notes: as for B1
For the molecule B5, in series [2], the Km is 171 µM, the kcat was determined as 128 s⁻¹ and the kcat/Km is 700000 M⁻¹ s⁻¹.
